The experiment concerns the target V5–FoTO1 (Taxus media). Briefly: co-IP; lysate of N. benthamiana leaves co-expressing both proteins; anti-V5 antibody on protein G magnetic beads, blot with anti-HA-HRP; lysates incubated 15 min with no compound, 45 μM taxadiene or a mock terpene (caryophyllene); extraction buffer 50 mM Tris pH 7.5, 150 mM NaCl, 0.6% NP-40, 0.6% CHAPS, 1 mM β-mercaptoethanol.

T5αH–HA, sequence (Q6WG30 whole entry): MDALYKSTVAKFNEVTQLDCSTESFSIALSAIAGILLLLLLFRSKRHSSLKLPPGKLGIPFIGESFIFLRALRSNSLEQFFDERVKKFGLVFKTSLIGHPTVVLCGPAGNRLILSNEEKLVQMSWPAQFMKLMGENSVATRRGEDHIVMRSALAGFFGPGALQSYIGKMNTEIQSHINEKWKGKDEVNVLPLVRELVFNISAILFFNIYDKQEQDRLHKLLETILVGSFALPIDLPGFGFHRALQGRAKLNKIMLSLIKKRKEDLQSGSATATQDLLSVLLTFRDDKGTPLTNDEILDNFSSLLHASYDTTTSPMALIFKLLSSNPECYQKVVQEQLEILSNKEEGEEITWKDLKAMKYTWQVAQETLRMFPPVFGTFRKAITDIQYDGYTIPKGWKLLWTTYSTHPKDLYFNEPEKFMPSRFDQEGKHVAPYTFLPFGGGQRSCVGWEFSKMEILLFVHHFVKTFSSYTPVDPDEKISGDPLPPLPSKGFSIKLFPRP

In turn, “T5αH–HA (from UniProt Q6WG30 1-499) (enzyme)” yielded a fold increase of the co-IP signal with 45 μM taxadiene of 4 fold.

The values are drawn from PMC12240809.
